Measurements: article PMC12024540, “Peptide-Based Regulation of TNF-α-Mediated Cytotoxicity” (Biomolecules, 2025)
Read-outs that look alike come from different tables or passages of the source.

Key:
[1] = target: recombinant human tumor necrosis factor alpha (rhTNF-α) (human); assay: MST; labelled rhTNF-α (RED-NHS 2nd Generation) at 20 nM, peptide titrated in 16 serial dilutions, PBS, 20 min incubation in the dark, Monolith NT.115 Pico, medium MST power
[2] = target: recombinant human tumor necrosis factor alpha (rhTNF-α) (human)
[3] = target: recombinant human tumor necrosis factor alpha (rhTNF-α) (human); remark: listed apart in the source

Chain of recombinant human tumor necrosis factor alpha (rhTNF-α) (human) (P01375 77-233): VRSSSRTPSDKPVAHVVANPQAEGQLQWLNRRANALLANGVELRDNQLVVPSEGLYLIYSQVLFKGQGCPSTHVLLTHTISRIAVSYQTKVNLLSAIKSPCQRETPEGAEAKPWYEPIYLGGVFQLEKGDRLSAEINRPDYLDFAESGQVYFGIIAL

Binder | Kd [1] | neutralization of TNF-α-induced cytotoxicity on L929 cells (MTT, 1 ng/mL TNF-α with actinomycin D, peptide 1 pM to 10 μM); blocks TNF-α with TNFR1 [2] | neutralization of TNF-α-induced cytotoxicity on L929 cells (MTT, 1 ng/mL TNF-α with actinomycin D, peptide 1 pM to 10 μM); blocks TNF-α with TNFR1 [3]
KRWSRYFWVDMTGTR [OB8 peptide] | 3890 nM | 7.5 µM | 
KGGGSGGGSGGGSRKEMGQV [OB2 peptide] | 46.7 nM |  | 81 pM
KGGGSGGGSHIHDDLLRYYGW [OB1 peptide] | 300 nM |  | 4.6 nM
